Results on three proteins are retold here after paper PMC5921835.

B1: sclareol synthase from Salvia sclarea (SsSS) (Salvia sclarea) (protein)
chain: AKMKENFKREDDKFPTTTTLRSEDIPSNLCIIDTLQRLGVDQFFQYEINTILDNTFRLWQEKHKVIYGNVTTHAMAFRLLRVKGYEVSSEELAPYGNQEAVSQQTNDLPMIIELYRAANERIYEEERSLEKILAWTTIFLNKQVQDNSIPDKKLHKLVEFYLRNYKGITIRLGARRNLELYDMTYYQALKSTNRFSNLCNEDFLVFAKQDFDIHEAQNQKGLQQLQRWYADCRLDTLNFGRDVVIIANYLASLIIGDHAFDYVRLAFAKTSVLVTIMDDFFDCHGSSQECDKIIELVKEWKENPDAEYGSEELEILFMALYNTVNELAERARVEQGRSVKEFLVKLWVEILSAFKIELDTWSNGTQQSFDEYISSSWLSNGSRLTGLLTMQFVGVKLSDEMLMSEECTDLARHVCMVGRLLNDVCSSEREREENIAGKSYSILLATEKDGRKVSEDEAIAEINEMVEYHWRKVLQIVYKKESILPRRCKDVFLEMAKGTFYAYGINDELTSPQQSKEDMKSFVF
B2: sclareol synthase from Salvia sclarea (SsSS) (Salvia sclarea; N431I) (protein)
chain: AKMKENFKREDDKFPTTTTLRSEDIPSNLCIIDTLQRLGVDQFFQYEINTILDNTFRLWQEKHKVIYGNVTTHAMAFRLLRVKGYEVSSEELAPYGNQEAVSQQTNDLPMIIELYRAANERIYEEERSLEKILAWTTIFLNKQVQDNSIPDKKLHKLVEFYLRNYKGITIRLGARRNLELYDMTYYQALKSTNRFSNLCNEDFLVFAKQDFDIHEAQNQKGLQQLQRWYADCRLDTLNFGRDVVIIANYLASLIIGDHAFDYVRLAFAKTSVLVTIMDDFFDCHGSSQECDKIIELVKEWKENPDAEYGSEELEILFMALYNTVNELAERARVEQGRSVKEFLVKLWVEILSAFKIELDTWSNGTQQSFDEYISSSWLSIGSRLTGLLTMQFVGVKLSDEMLMSEECTDLARHVCMVGRLLNDVCSSEREREENIAGKSYSILLATEKDGRKVSEDEAIAEINEMVEYHWRKVLQIVYKKESILPRRCKDVFLEMAKGTFYAYGINDELTSPQQSKEDMKSFVF
B3: sclareol synthase from Salvia sclarea (SsSS) (Salvia sclarea; N431Q) (protein)
chain: AKMKENFKREDDKFPTTTTLRSEDIPSNLCIIDTLQRLGVDQFFQYEINTILDNTFRLWQEKHKVIYGNVTTHAMAFRLLRVKGYEVSSEELAPYGNQEAVSQQTNDLPMIIELYRAANERIYEEERSLEKILAWTTIFLNKQVQDNSIPDKKLHKLVEFYLRNYKGITIRLGARRNLELYDMTYYQALKSTNRFSNLCNEDFLVFAKQDFDIHEAQNQKGLQQLQRWYADCRLDTLNFGRDVVIIANYLASLIIGDHAFDYVRLAFAKTSVLVTIMDDFFDCHGSSQECDKIIELVKEWKENPDAEYGSEELEILFMALYNTVNELAERARVEQGRSVKEFLVKLWVEILSAFKIELDTWSNGTQQSFDEYISSSWLSQGSRLTGLLTMQFVGVKLSDEMLMSEECTDLARHVCMVGRLLNDVCSSEREREENIAGKSYSILLATEKDGRKVSEDEAIAEINEMVEYHWRKVLQIVYKKESILPRRCKDVFLEMAKGTFYAYGINDELTSPQQSKEDMKSFVF

Substrate in this data set: C/C(=C\COP(=O)(O)OP(=O)(O)O)CC[C@@H]1[C@@]2(C)CCCC(C)(C)[C@@H]2CC[C@@]1(C)O
The data set is described as follows: steady-state kinetics. The format is biochemical, Salvia sclarea. As to conditions: mean ± SE of three experiments; assay conditions only in the supplement.
For B1, the Michaelis constant (Km) was 7 ± 2 µM, the turnover number (kcat) was determined as 0.53 ± 0.04 s⁻¹ and the kcat/Km stood at 76000 M⁻¹ s⁻¹.

As to B2, the Km is 6 ± 1 µM, the catalytic constant (kcat) was determined as 0.38 ± 0.02 s⁻¹ and the kcat/Km stood at 63000 M⁻¹ s⁻¹.

As to B3, the Michaelis constant (Km) is 10 ± 1 µM, the turnover number (kcat) worked out at 0.47 ± 0.02 s⁻¹ and the kcat/Km stood at 47000 M⁻¹ s⁻¹.
